{"source": "patent US9920133B2", "about": "“Anti-tissue factor monoclonal antibody” (NATIONAL CANCER CENTER, priority 2014, dated 2018)", "key": {"recombinant hTF antigen": {"target": "T1, recombinant hTF antigen (Homo sapiens, UniProt P13726)", "T1 construct": "made in house; host or cells: Escherichia coli", "T1 sequence (P13726 with tags, fused parts or gaps)": "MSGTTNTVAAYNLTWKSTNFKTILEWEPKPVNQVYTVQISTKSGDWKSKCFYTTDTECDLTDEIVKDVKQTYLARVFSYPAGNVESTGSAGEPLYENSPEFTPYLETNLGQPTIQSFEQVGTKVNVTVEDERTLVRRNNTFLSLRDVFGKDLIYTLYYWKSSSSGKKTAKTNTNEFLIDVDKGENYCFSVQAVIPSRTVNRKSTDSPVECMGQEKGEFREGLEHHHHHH", "experiment": "Anticoagulant activity evaluation (prothrombin time)", "format": "biochemical", "conditions": "based on prolonged coagulation time ratio", "procedure": "The prothrombin time of each of the anti-hTF monoclonal antibodies (No. 1849 and No. 1859) was measured as described below.\n3 μg of the antibody was added to 350 ng of a recombinant hTF antigen, and PBS was added to a total volume of 5 μl. An antigen-antibody reaction was performed for 15 minutes under shaking at 37° C. and 600 rpm. To the reaction solution, 50 μl of human […] subjected to anticoagulant treatment with 3.8% sodium citrate, and 100 μl of 25 mM CaCl2 were added, and at the same time, culturing was performed under shaking at 37° C. and 600 rpm. The period of time until a fibrin clot was formed (prothrombin time) was measured. The prolonged coagulation time ratio (prothrombin time ratio) of each antibody when the prothrombin time in a control using PBS in place of the reaction solution is defined as 1 are shown in Table 3 and FIG. 2."}, "[1]": {"tested_on": "Pancreatic cancer cells BxPC3 that express TF in high amounts", "experiment": "Internalization assay (anti-hTF antibodies)", "format": "cell-based, human", "conditions": "30 μg Alexa 647-labeled antibody, culturing for 3 hours, fluorescence microscope", "procedure": "(§1) Each monoclonal antibody obtained as described above was subjected to the following internalization assay.\nPancreatic cancer cells BxPC3 that express TF in high amounts were seeded into a four-chamber Culture Slide (BD) at 5×10^4 cells/chamber, and cultured in RPMI 1640 medium at 37° C. under a 5% CO2 environment for 12 hours. The resultant was washed three times with PBS, and then 30 μg of antibody labeled with an Alexa 647 fluorescence labeling kit (Invitrogen) was diluted with 1 ml of RPMI 1640 medium and added to each chamber, followed by culturing for 3 hours. After 2 hours from the initiation of this culturing, Lysotracker® RED-DND99 (Invitrogen) was added to the culture solution to have a final concentration of 75 nM, followed by further culturing for 1 hour. Then, the resultant was washed three times with PBS. After that, immobilization was performed with 4% paraformaldehyde, and nuclear staining was performed with 4′,6-diamidino-2-phenylindole (DAPI), followed by mounting with Fluoromount-G® (Southern Biotech). Then, the cells were observed using a fluorescence microscope (Keyence)."}, "[2]": {"tested_on": "Mouse B16 melanoma cells and cells thereof that were forced to express TF", "experiment": "Internalization assay (anti-mTF antibody)", "format": "cell-based", "conditions": "mouse B16 melanoma cells and TF-forced-expression cells, 30 μg Alexa 647-labeled antibody, 3 hours", "procedure": "as §1\nMouse B16 melanoma cells and cells thereof that were forced to express TF were seeded into a four-chamber Culture Slide (BD) at 5×10^4 cells/chamber, and cultured in RPMI 1640 medium at 37° C. under a 5% CO2 environment for 12 hours. The resultant was washed three times with PBS, and then 30 μg of antibody labeled with an Alexa 647 fluorescence labeling kit (Invitrogen) was diluted with 1 ml of RPMI 1640 medium and added to each chamber, followed by culturing for 3 hours. After 2 hours from the initiation of this culturing, Lysotracker® RED-DND99 (Invitrogen) was added to the culture solution to have a final concentration of 75 nM, followed by further culturing for 1 hour. Then, the resultant was washed three times with PBS. After that, immobilization was performed with 4% paraformaldehyde, and nuclear staining was performed with 4′,6-diamidino-2-phenylindole (DAPI), followed by mounting with Fluoromount-G® (Southern Biotech). Then, the cells were observed using a fluorescence microscope (Keyence)."}, "[3]": {"experiment": "Body weight in the antitumor effect confirmation test", "format": "in vivo, nude mice (BALBc nu/nu)", "conditions": "BxPC3 xenograft nude mice, 10 mg/kg tail vein on Day 0, 4, 8, until Day 30", "procedure": "(§2) 1×10^7 cells/100 μL of human pancreatic cancer cells (BxPC3) were implanted subcutaneously into the backs of 4-week-old nude mice (BALBc nu/nu, female), and treatment was initiated when the tumor volume (calculated based on the tumor diameter) reached about 200 mm^3. The day of initiation of the treatment was defined as Day 0, and a drug was administered to the tail vein once on each of Day 0, Day 4, and Day 8 (administration three times in total). hTF-MMAE was used as the drug, and physiological saline was administered as a control (each group: N=7). The dose of the drug was 10 mg/kg per administration (antibody amount: about 200 μg/mouse). Thereafter, the tumor diameter and the body weight were measured twice a week until Day 30. The ratios of the tumor volume and the body weight to the tumor volume and the body weight at Day 0 are shown in FIG. 4 and FIG. 5, respectively."}, "[4]": {"tested_on": "human pancreatic cancer cells (BxPC3) implanted subcutaneously", "experiment": "Antitumor effect confirmation test (tumor volume)", "format": "in vivo, nude mice (BALBc nu/nu)", "conditions": "BxPC3 xenograft nude mice, 10 mg/kg tail vein on Day 0, 4, 8, until Day 30", "procedure": "as §2"}, "[5]": {"tested_on": "Human pancreatic cancer cells (BxPC3)", "experiment": "Cytocidal effect confirmation test", "format": "cell-based", "conditions": "BxPC3, 72 hours after addition, compared to mTF-MMAE", "procedure": "Human pancreatic cancer cells (BxPC3) were added to a 96-well plate at 3×10^3 cells/well, and cultured in RPMI medium containing 10% FCS, penicillin (100 U/ml), and streptomycin (100 μg/ml) hTF-MMAE was added to the wells at various drug concentrations, and cell survival rates 72 hours after the addition were calculated.\nIt should be noted that, as a comparative test, a similar test was performed using, in place of hTF-MMAE, mTF-MMAE obtained by binding MMAE, in the same manner as above, to a monoclonal antibody (mTF) against mouse TF not expressed in human cancer cells, and a cell survival rate was calculated. The ratio (%) of each cell survival rate, with the cell survival rate of a negative control (no addition of a drug sample) being defined as 100%, is shown in FIG. 3."}}, "data": [{"molecule": "No. 1859: anti-human tissue factor monoclonal antibody, heavy/light chain variable regions SEQ ID NOS: 17 and 18 (antibody, V domains shown, rat) VH: EVMLVESGPGLVQPSQTLSLICTVSGFSLTDYSVHWVRQPPGKGLEWVGVMWSGGTTTFNSGLKSRLSISRDTSKSQVFLKMYSLRTEDTAVYYCTRERAGSPLNWFAYWGQGTLVTVSS VL: DIVMTQSPASLSASLEEIVTITCQASQDIGNYLSWYQQKPGKSPHLLIHSSTSLADGVPSRFSGSRSGTQYSLKINRLQVEDTGVYYCLQHYSGSRTFGGGTNLELK", "values": [{"measurement": "anticoagulant activity", "setting": "recombinant hTF antigen", "value": "extremely small"}, {"measurement": "ability to be internalized (labeling substance transferred into cells)", "setting": "[1]", "value": "had the ability to be internalized"}]}, {"molecule": "No. 1157: anti-mouse tissue factor monoclonal antibody, heavy/light chain variable regions SEQ ID NOS: 25 and 26 (antibody, V domains shown, rat) VH: MAEVMLVESGGGLVQPGRSLKLSCLASGFTFTDYGMNWIRQTPGKGLEWVASITVRNYIYYADTVKGRFTISRENAKNTLYLQMTSLTSEDTALYYCSRRTEGMDYWGQGVMVTVSS VL: MTQSPSFLSASVGDRVTVTCKVSQNINGYLNWYQQKVGEAPKVLIYNTDNLQTDVPSRFSGSGSGTVFTLTISSLHPEDVATHFCLQHYSWPLTFGSGTQLEIKR", "values": [{"measurement": "ability to be internalized (fluorescence-labeled antibody transferred into cells)", "setting": "[2]", "value": "had the ability to be internalized by a cell expressing mTF"}]}, {"molecule": "No. 1849: rat anti-human tissue factor monoclonal antibody, heavy/light chain variable regions SEQ ID NOS: 9 and 10 (antibody, V domains shown, rat) VH: EVQLVESGGGLVQSGRSLKLSCAASGFTFSDYNMAWIRQAPKKGLEWVAAIIYDGTRTYYRDSVRGRFTISRDNAKSTLYLQVDSLRSEDTATYYCATGDSYTNFAYWGQGTLVTVSS VL: EIVLTQSPTTMAASPGEKVTLTCRASSSLSYMHWYQQRSGTSPKLWIYETSKLASGVPNRFSGSGSGTSFSLTIDSMETEDAATYYCQQGNSYPRTFGGGTKLELK", "values": [{"measurement": "ability to be internalized (labeling substance transferred into cells)", "setting": "[1]", "value": "had the ability to be internalized"}]}, {"molecule": "hTF-MMAE: anti-hTF monoclonal antibody (No. 1849) having monomethyl auristatin E (MMAE) bound thereto, three to five MMAE molecules per antibody (conjugate, non-natural residues) VH: EVQLVESGGGLVQSGRSLKLSCAASGFTFSDYNMAWIRQAPKKGLEWVAAIIYDGTRTYYRDSVRGRFTISRDNAKSTLYLQVDSLRSEDTATYYCATGDSYTNFAYWGQGTLVTVSS VL: EIVLTQSPTTMAASPGEKVTLTCRASSSLSYMHWYQQRSGTSPKLWIYETSKLASGVPNRFSGSGSGTSFSLTIDSMETEDAATYYCQQGNSYPRTFGGGTKLELK", "values": [{"measurement": "body weight (ratio to Day 0)", "setting": "[3]", "value": "a reduction in body weight was not found"}, {"measurement": "antitumor effect (tumor volume ratio to Day 0)", "setting": "[4]", "value": "remarkably excellent antitumor effect"}, {"measurement": "cytocidal effect (cell survival rate)", "setting": "[5]", "value": "remarkably excellent cytocidal effect"}]}]}
